Results on 4 molecules are retold here after US20180030434A1 (Genentech, published 2018).

Where a chain is given by its changes, count along the chain named. Names and notes keep the numbering of the source.

The target of assay [1] is T1, human VEGF (8-109) (human, UniProt P15692 214-315, ALEXA FLUOR 488 or ALEXA FLUOR 647 succinimidyl ester label in the flow cytometry experiments).
T1 construct: range 8-109; The SPR section says only 'human VEGF'; also called VEGF antigen
T1 sequence (looked up): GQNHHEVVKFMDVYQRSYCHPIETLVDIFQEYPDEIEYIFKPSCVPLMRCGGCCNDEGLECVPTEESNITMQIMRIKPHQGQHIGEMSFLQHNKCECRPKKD
Put plainly: flow cytometry (SSC against labeled VEGF) of the anti-VEGF spiking experiment, bacterial antibody display; no unstained control is drawn in these panels. (Flow cytometry measures light scatter and fluorescence of single cells or particles in a stream.)
Experimental: For bacterial display, antibodies were expressed in a Lpp deletion (Δlpp) of strain 62A7. […] After 24 hours at 30° C., 1 OD aliquots were harvested and pelleted by centrifugation (4 minutes, 6500 rcf). Cells were resuspended in 100 μL PBS pH 7.4 with 2% BSA and 5 mM EDTA and incubated at 4° C. for 30 minutes. After initial incubation, SYTO® 41 or 9 nucleic acid stain (Molecular Probes, USA) was added to a final dilution of 1:100, and ALEXA⁴⁶⁸- or ALEXA⁶⁴⁷-labeled antigen added to a final concentration of 1-2 μM. Incubation was continued at 4° C. in darkness for 1 hour, at which time MgCl₂ was added to 10-20 mM final concentration. Unbound proteins were removed by washing 3 times with 1 mL volumes of PBS pH 7.4+20 mM MgCl₂. […] The FACS™ gating strategy included cells that were SYTO® dye-positive. Doublet discrimination gates were used to remove doublets and finally antigen-positive cells were sorted.

The target in assay [2] is T2, Unizyme-tagged human IL-13 (33-146) (human, UniProt P35225 33-146, ALEXA FLUOR 488 or ALEXA FLUOR 647 succinimidyl ester label in the staining and flow cytometry experiments).
T2 construct: range 33-146; The SPR section says only 'Human IL-13'; also called huIL-13; IL-13 antigen; not shown: Unizyme tag
Put plainly: SPR (Biacore 3000), half-antibody from E. coli periplasmic extract captured by Fab Binder, human IL-13 as analyte, 25 C. (Surface plasmon resonance follows binding to a sensor surface in real time, without labels.)

T2 sequence (P35225 33-146, form in doubt): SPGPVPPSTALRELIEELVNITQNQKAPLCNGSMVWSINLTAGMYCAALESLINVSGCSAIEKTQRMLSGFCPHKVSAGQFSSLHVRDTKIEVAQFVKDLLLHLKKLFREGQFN

B1: anti-IL-13 half-antibody WT (antibody, V domains shown)
VH: QVTLRESGPALVKPTQTLTLTCTVSGFSLSAYSVNWIRQPPGKALEWLAMIWGDGKIVYNSALKSRLTISKDTSKNQVVLTMTNMDPVDTATYYCAGDGYYPYAMDNWGQGSLVTVSS
VL: DIVMTQSPDSLSVSLGERATINCRASKSVDSYGNSFMHWYQQKPGQPPKLLIYLASNLESGVPDRFSGSGSGTDFTLTISSLQAEDVAVYYCQQNNEDPRTFGGGTKVEIK
notes: Half-antibody (one heavy and one light chain, knobs-into-holes Fc); Expressed in the E. coli periplasm; for SPR captured from periplasmic extract; also called anti-IL-13 WT; Half-Ab
In the case of B1, in assay [1], the binding result is listed as “no binding”. Besides, in assay [2], the affinity, expressed as Kd, was 0.04 nM; the koff (usually the rate constant with which the complex falls apart) amounted to 5.09e-05 s⁻¹; the on-rate constant (kon) – broadly, the rate constant with which the complex forms – stood at 1.3e+06 M⁻¹ s⁻¹.

B2: anti-IL-13 half-antibody framework variant E6Q (heavy chain) (antibody, name in Kabat numbering, V domains shown)
VH: B1 VH with E6Q
VL: B1 VL
notes: Half-antibody
B2: in assay [2], binding was put at a Kd of 0.038 nM, the koff was found to be 4.26e-05 s⁻¹ and the kon is 1.13e+06 M⁻¹ s⁻¹.

B3: anti-IL-13 half-antibody framework variant F27L (heavy chain) (antibody, name in Kabat numbering, V domains shown)
VH: B1 VH with F27L
VL: B1 VL
notes: Half-antibody
As for B3, in assay [2], the dissociation constant (Kd) (as a rule, the free concentration of one partner at which half of the binding sites on the other are occupied at equilibrium, for simple one-to-one binding) was 0.034 nM; the koff amounted to 4.43e-05 s⁻¹; the kon came out at 1.3e+06 M⁻¹ s⁻¹.

B4: anti-IL-13 half-antibody framework variant M4L (light chain) (antibody, name in Kabat numbering, V domains shown)
VH: B1 VH
VL: B1 VL with M4L
notes: Half-antibody
For B4, in assay [2], the Kd worked out at 0.029 nM, the koff stood at 3.16e-05 s⁻¹ and the kon is 1.11e+06 M⁻¹ s⁻¹.
